Here are results for 1 molecule from patent US20090215095A1 (INTRINSIC LIFESCIENCES, published 2009).

Ends that are not written are not given here. Where only a bound is given, the exact number is not on record here.

In general, IC50 refers to the concentration that inhibits the measured activity by half. The low end stands for higher potency, the high end for lower potency.

Assay [1] deals with Protein A affinity purified KST4. Kind of assay: competitive inhibition ELISA, Protein A purified KST4 at 1:5000 (FIG. 7B). How it is done:
We collected serum from each of three immunized rabbits (KST3, KST4, KST5). KST3 and 4 are sera from rabbits immunized with hepcidin-KLH conjugates produced using EDC chemistry, while KST5 is sera from conjugates produced using DSS chemistry (FIG. 7A). […] Additional validation of the anti-mature, folded, bioactive hepcidin antibodies described above was performed and their utility in competitive ELISA examined in the presence of varying dilutions of bass serum (FIG. 8 A-C). Note increasing inhibition of signal with increasing amounts of synthetic hepcidin added to tracer. Note the effects of serum on competitive ELISA standard curve (FIG. 8 C) generated with data from (FIG. 8 B) between 10-100 ngs of mature, folded, bioactive hepcidin. […] FIG. 9 is an example of a routine standard curve where hepcidin competitor concentrations are expressed as ng/ml, rather than total ngs added to the competition.

The target in assay [2] is polyclonal anti-hepcidin rabbit sera (unpurified serum, source rabbit not named). The experiment in a line: competition ELISA with synthetic hepcidin as competitor.
The target in assay [3] is Protein A affinity purified antibodies (anti-hepcidin rabbit sera, source serum not named). The description is as above.
The target of assay [4] is affinity purified rabbit anti-mature, folded, bioactive hepcidin antibody (KST4). Described as above.

Consider GCRFCCNCCPNMSGCGVCCRF-OH (disulfide (positions not given here), also called synthetic hepcidin) [synthetic, mature, refolded, bioactive bass hepcidin], for which the IC50 in assay [1] is approximately 2.5 ng/mL. The “percent of signal competed away” value in assay [2] was 65%; in assay [3], approximately 80%; in assay [4], more than 90%.
